The values that follow come from article PMC10531703.

This test deals with F10_Y11delinsLN mutant human γS-crystallin (human) (UniProt P22914).
Chain of F10_Y11delinsLN mutant human γS-crystallin (human) (P22914 other isoform, or with tags, fused parts or gaps mutant): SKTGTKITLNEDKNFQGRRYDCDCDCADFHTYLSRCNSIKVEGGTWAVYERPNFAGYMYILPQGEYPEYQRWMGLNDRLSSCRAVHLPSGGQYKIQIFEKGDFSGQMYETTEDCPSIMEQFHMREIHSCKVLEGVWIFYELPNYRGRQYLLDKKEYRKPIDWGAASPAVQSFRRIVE

Chain of human αA-crystallin (P02489 whole entry): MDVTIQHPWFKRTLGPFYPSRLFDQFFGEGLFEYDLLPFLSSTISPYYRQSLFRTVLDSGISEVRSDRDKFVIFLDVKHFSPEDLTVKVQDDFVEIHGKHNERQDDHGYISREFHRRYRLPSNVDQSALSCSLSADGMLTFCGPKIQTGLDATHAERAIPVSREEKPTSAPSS

For the substance “human αA-crystallin (from UniProt P02489 1-173) (natural protein)”, the particle radius by dynamic light scattering, 30 to 60 °C; 1:1 molar ratio mixture (the mutant alone: 1063 nm radius after heating to 60 °C) was 13.3 nm.
